Biological target: ECOR31 mCpol (minimal CRISPR polymerase) with residual ENLYFQ cleavage site (E. coli ECOR31)
Test: SEC; HiLoad 16/600 Superdex 200 pg, 20 mM Tris-HCl pH 8.0, 500 mM KCl, 10% glycerol, 1 mM TCEP; elution compared with a molecular weight standard

stoichiometry N: 2
Substance: ECOR31 mCpol (minimal CRISPR polymerase) with residual ENLYFQ cleavage site (enzyme)
